Numbering of substitutions follows the chain as printed.

Substrate in assay [1]: T1, BNP single alanine substituted peptide, F11 to alanine (human)
T1 sequence (peptide, cyclic hBNP 1-32): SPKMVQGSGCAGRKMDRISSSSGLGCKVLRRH
The experiment in a line: BIAcore SPR, AM1 captured on goat anti-human Fc, peptide at 10 nM, 1800 s dissociation.

Substrate in assay [2]: T2, BNP single alanine substituted peptide, R13 to alanine (human)
T2 sequence (peptide, cyclic hBNP 1-32): T1 sequence (peptide, cyclic hBNP 1-32) with A11F, R13A
Described as above.

B1: 106.3 AM1 chimeric antibody (antibody, V domains shown)
VH: QIQLVQSGPELRKPGETVKISCKGSGYTFTHYGINWVKQTPRKDLKWMGWINTHTGEAYYADDFKGRFAFSLETSANTAYLQINNLNNGDMGTYFCTRSHRFGLDYWGQGTSVTVSS
VL: DNVLTQSPPSLAVSLGQRATISCKANWPVDYNGDSYLNWYQQKPGQPPKFLIYAASNLESGIPARFSGSGSGTDFNLNIHPVEEEDAATYYCQQSNEDPFTFGSGTKLEIK
modifications: Conjugated to acridinium or biotinylated in the sandwich assays (Examples 4 and 7); the sites are not defined.
Take B1: the fold increase in off-rate against WT BNP in assay [1] and in assay [2] was more than 10 fold each time.

For the origin of these results see patent US20080124811A1.
